Results as given in the supplement of paper PMC10567573.

B1: INTS3 (parent)
chain: FSDDEEDLNSKGKKREFRFHPIKE
B2: KRT18 (parent)
chain: RAQYDELARKNREELDKYWSQQIE

Variants of: B1
Assay: protein stability index of a GFP-peptide fusion (GPS, HEK-293T) (PSI 1-6); higher = more stable
Conditions: c terminus: a fixed tail appended
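Also: lentivirally expressed fusions sorted by FACS into six bins by GFP to DsRed ratio, PSI derived from sequencing read proportions per bin multiplied by bin number.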

Variant | protein stability index
ASDDEEDLNSKGKKREFRFHPIKE [F1A] | 2.89
CSDDEEDLNSKGKKREFRFHPIKE [F1C] | 2.73
LSDDEEDLNSKGKKREFRFHPIKE [F1L] | 2.69
ISDDEEDLNSKGKKREFRFHPIKE [F1I] | 3.2
GSDDEEDLNSKGKKREFRFHPIKE [F1G] | 2.99
ESDDEEDLNSKGKKREFRFHPIKE [F1E] | 3.36
HSDDEEDLNSKGKKREFRFHPIKE [F1H] | 2.72
KSDDEEDLNSKGKKREFRFHPIKE [F1K] | 2.33
DSDDEEDLNSKGKKREFRFHPIKE [F1D] | 2.84

Variants of: B2
Assay: as above
Conditions: c terminus: a fixed tail appended

Variant | protein stability index
RAQYDELARKNREELDKYWSQQGE [I23G] | 4.41
RAQYDELARKNREELDKYWSQQDE [I23D] | 5.28
RAQYDELARKNREELDKYWSQQPE [I23P] | 4.96
RAQYDELARKNREELDKYWSQQQE [I23Q] | 4.43
RAQYDELARKNREELDKYWSQQLE [I23L] | 2.21
RAQYDELARKNREELDKYWSQQAE [I23A] | 3.97
RAQYDELARKNREELDKYWSQQRE [I23R] | 4.68
RAQYDELARKNREELDKYWSQQNE [I23N] | 4.39
RAQYDELARKNREELDKYWSQQHE [I23H] | 2.23
RAQYDELARKNREELDKYWSQQCE [I23C] | 3.45
RAQYDELARKNREELDKYWSQQWE [I23W] | 3.97
RAQYDELARKNREELDKYWSQQKE [I23K] | 5.03
RAQYDELARKNREELDKYWSQQTE [I23T] | 4.69
RAQYDELARKNREELDKYWSQQVE [I23V] | 4.14
RAQYDELARKNREELDKYWSQQME [I23M] | 2.28
RAQYDELARKNREELDKYWSQQEE [I23E] | 5.1
RAQYDELARKNREELDKYWSQQSE [I23S] | 4.96
RAQYDELARKNREELDKYWSQQFE [I23F] | 2.23
RAQYDELARKNREELDKYWPQQIE [S20P] | 3.85
RAQYDELARKNREELDKYWYQQIE [S20Y] | 2.79
RAQYDELARKNREELDKYWWQQIE [S20W] | 2.6
RAQYDELARKNREELDKYWMQQIE [S20M] | 2.56

Variant | protein stability index
RAQYDELARKNREELDKYWNQQIE [S20N] | 2.79
RAQYDELARKNREELDKYWVQQIE [S20V] | 3.18
RAQYDELARKNREELDKYWLQQIE [S20L] | 2.33
RAQYDELARKNREELDKYWQQQIE [S20Q] | 2.17
RAQYDELARKNREELDKYWRQQIE [S20R] | 2.17
RAQYDELARKNREELDKYWTQQIE [S20T] | 2.79
RAQYDELARKNREELDKYWSQRIE [Q22R] | 3.78
RAQYDELARKNREELDKYWSQGIE [Q22G] | 3.68
RAQYDELARKNREELDKYWSQSIE [Q22S] | 3.82
RAQYDELARKNREELDKYWSQPIE [Q22P] | 3.83
RAQYDELARKNREELDKYWSQMIE [Q22M] | 2.67
RAQYDELARKNREELDKYWSQEIE [Q22E] | 3.7
RAQYDELARKNREELDKYWSQIIE [Q22I] | 3.37
RAQYDELARKNREELDKYWSQFIE [Q22F] | 2.75
RAQYDELARKNREELDKYWSQDIE [Q22D] | 4.67
RAQYDELARKNREELDKYWSQHIE [Q22H] | 4.67
RAQYDELARKNREELDKYWSQKIE [Q22K] | 4.27
RAQYDELARKNREELDKYWSQWIE [Q22W] | 4
RAQYDELARKNREELDKYWSQYIE [Q22Y] | 3.44
RAQYDELARKNREELDKYWSQLIE [Q22L] | 3.15
RAQYDELARKNREELDKYWSQCIE [Q22C] | 2.31
RAQYDELARKNREELDKYWSQTIE [Q22T] | 3.99

Variant | protein stability index
RAQYDELARKNREELDKYWSQNIE [Q22N] | 3.31
RAQYDELARKNREELDKYWSQAIE [Q22A] | 3.44
RAQYDELARKNREELDKYWSQVIE [Q22V] | 3.08
RAQYDELARKNREELDKYWSPQIE [Q21P] | 4.25
RAQYDELARKNREELDKYWSTQIE [Q21T] | 3.76
RAQYDELARKNREELDKYWSCQIE [Q21C] | 4
RAQYDELARKNREELDKYWSAQIE [Q21A] | 3.05
RAQYDELARKNREELDKYWSKQIE [Q21K] | 3.06
RAQYDELARKNREELDKYWSNQIE [Q21N] | 3.71
RAQYDELARKNREELDKYWSEQIE [Q21E] | 2.88
RAQYDELARKNREELDKYWSSQIE [Q21S] | 3.4
RAQYDELARKNREELDKYWSMQIE [Q21M] | 2.98
RAQYDELARKNREELDKYWSVQIE [Q21V] | 3.17
RAQYDELARKNREELDKYWSRQIE [Q21R] | 3.81
RAQYDELARKNREELDKYWSLQIE [Q21L] | 2.74
RAQYDELARKNREELDKYWSFQIE [Q21F] | 3.62
RAQYDELARKNREELDKYWSYQIE [Q21Y] | 3.08
RAQYDELARKNREELDKYWSDQIE [Q21D] | 2.88
RAQYDELARKNREELDKYWSHQIE [Q21H] | 3.41
RAQYDELARKNREELDKYWSWQIE [Q21W] | 3.28
RAQYDELARKNREELDKYWSIQIE [Q21I] | 3.05
RAQYDELARKNREELDKYWSGQIE [Q21G] | 3.58

Variant | protein stability index
RAQYDELARKNREELDKYWSQQIM [E24M] | 2.31
RAQYDELARKNREELDKYWSQQIS [E24S] | 3.27
RAQYDELARKNREELDKYWSQQIG [E24G] | 3.77
RAQYDELARKNREELDKYWSQQIW [E24W] | 2.5
RAQYDELARKNREELDKYWSQQIC [E24C] | 3.05
RAQYDELARKNREELDKYWSQQIY [E24Y] | 2.73
RAQYDELARKNREELDKYWSQQII [E24I] | 3.12
RAQYDELARKNREELDKYWSQQIL [E24L] | 2.23
RAQYDELARKNREELDKYWSQQIV [E24V] | 3.01
RAQYDELARKNREELDKYWSQQIT [E24T] | 3.36
RAQYDELARKNREELDKYWSQQIR [E24R] | 2.3
RAQYDELARKNREELDKYWSQQIQ [E24Q] | 2.94
RAQYDELARKNREELDKYWSQQID [E24D] | 3.8
RAQYDELARKNREELDKYWSQQIP [E24P] | 3.87
RAQYDELARKNREELDKYWSQQIN [E24N] | 3.13
RAQYDELARKNREELDKYWSQQIF [E24F] | 3.16
RAQYDELARKNREELDKYWSQQIA [E24A] | 2.48
RAQYDELARKNREELDKYWSQQIK [E24K] | 3.34
RAQYDELARKNREELDKYWSQQIH [E24H] | 3.72
